For assay [1], the system named is Treg cells and CD3+ T cells in dura, TG and DRG. Nature of the assay: Immunohistochemistry of CD3+ T cells and EGFP+ Treg cells in dura, TG, DRG and cervical/medullary dorsal horn. It is filed as in vivo, mouse. The protocol: Tissue preparation, immunohistochemistry, and image analysis. Mice were euthanized with i.p. injection of barbiturate (200 mg/kg) and were transcardially perfused with warm 0.1 M phosphate buffered saline (pH 7.2) followed by cold 4% formaldehyde in 0.1 M phosphate buffer (pH 7.2) for fixation. Trigeminal ganglia, lumbar L4 DRG, and the tissues containing the cervical/medullary dorsal horn (from obex to C3 cervical spinal cord) were collected and sectioned at […] in the transverse plane, collected on Superfrost Plus glass slides in sequence and stored at […]
The dura was carefully dissected from the skull using forceps and stained as whole mount. T cells were identified by the rat anti-CD3 antibody (clone 17A2, 1:200; eBioscience, San Diego, CA), and Treg cells were identified with the chicken anti-EGFP (1:1000; AVES Lab, Tigard, OR) antibody in tissues from DEREG mice. […] To quantify CD31 T cells and Treg cells on the dura, we took random, nonoverlapping images (10 per mouse) in areas adjacent to the middle meningeal artery (MMA). To quantify T cells and Treg cells in TG, DRG, and cervical/medullary dorsal horn, all cells on individual sections were counted, and the number was multiplied by 4 to obtain the total number of cells per ganglion in each mouse. […] Representative images were adjusted for contrast and brightness using the same parameter within individual experiments. No other manipulations were made to the images. Image analysis was performed with experimenters blinded to the experimental groups.

Assay [2] has as its system NTG-induced skin hypersensitivity in mice. Nature of the assay: Mouse model of chronic migraine (repetitive NTG): hindpaw and facial von Frey thresholds, cheek acetone test. It is filed as in vivo. Here is the method:
Mouse model of chronic migraine and drug treatments: After measuring baseline nociceptive responses, mice received repetitive intraperitoneal (i.p.) injections of NTG (10 mg/kg in saline with 1% propylene glycol) or vehicle (saline with 1% propylene glycol in saline, 10 mL/kg) every 2 days for 4 or more times as described previously (Pradhan A A, et al. PAIN 2014; 155:269-74). Nocifensive behaviors were measured 2 days after each injection (before the next treatment). NTG (SDM27; Copperhead Chemical, Tamaqua, PA) was freshly diluted from the stock (10% in propylene glycol, aliquoted in airtight glass vials and stored at 4° C.) with saline for every injection. Recombinant mouse IL2 (carrier-free; Biolegend, San Diego, CA) was freshly diluted from the stock (1 mg/mL aliquots at […]) every day. Each mouse received daily i.p. injection of […] IL2 in […] saline. The control mice received daily i.p. injections of […] saline. In Treg depletion experiment, mice received 1 i.p. injection of antibodies against CD25 ([…], BP0012; BioXcell, West Lebanon, NH11) or control IgG (BP0088; BioXcell). The antibody binds to CD25 on Treg cell membrane and depletes Treg cells through Fcg receptor III-mediated antibody-dependent cellular cytotoxicity and antibody-dependent cellular phagocytosis (Setiady Y Y, et al, Eur J Immunol 2010; 40:780-6). Note that on the days that the mouse behaviors were tested, NTG, IL2 and/or antibodies were always injected after completing the behavioral tests.
Responses to mechanical stimuli on the hindpaw. Mice were habituated in individual clear plexiglass boxes (11×11×15 cm) for 1 to 2 hours. A series of calibrated von Frey filaments was used to apply mechanical stimuli to the plantar surface of the hindpaws. The up-down paradigm was used to determine the 50% withdrawal threshold. The thresholds for both hindpaws were averaged to yield a single value for each mouse.
Cheek acetone test. The acute nocifensive response to acetone-evoked evaporative cooling on mouse cheek was measured as previously described (Constandil L, et al. J Pain 2012; 13:579-89). The day before testing, both cheeks were shaved (6.5×12 mm) under brief anesthesia (2% isoflurane in 100% oxygen). On the test day, mice were habituated in individual plexiglass cylinders (11-cm diameter, 15-cm height) situated in front of 3-way mirrors for 1 to 2 hours. Acetone ([…]) was applied to the shaved cheeks and immediately returned mice to the cylinders. Time spent wiping the treated area was recorded by a video camera and quantified offline. For individual mice, acetone was applied alternatingly to both cheeks at 10-minute intervals, and the duration of behavior was averaged from 4 applications.
Withdrawal responses to facial mechanical stimuli. The hair on mouse forehead (above and between 2 eyes) was shaved the day before testing. On the test day, the experimenter gently held the mouse on the palm with minimal restraint and applied the calibrated von Frey filament perpendicularly to the shaved skin, causing the filament to bend for 5 seconds. A positive response was determined by the following criteria as previously described: mouse vigorously stroked its face with the forepaw, head withdrawal from the stimulus, or head shaking (Elliott M B et al., Headache 2012; 52:966-84). The up-down paradigm was used to determine the 50% withdrawal threshold. […]

[3] abbreviates: 15 days of ld-IL2, male DEREG mice.
Where [4] appears, read: ld-IL2 pretreatment, female C57BL/6J.

B1: ld-IL2: Recombinant mouse IL2 (carrier-free; Biolegend), given as daily low-dose i.p. injection (protein, UniProt P04351 21-169, looked up)
Interleukin-2: APTSSSTSSSTAEAQQQQQQQQQQQQHLEQLLMDLQELLSRMENYRNLKLPRMLTFKFYLPKQATELKDLQCLEDELGPLRHVLDLTQSKSFQLEDAENFISNIRVTVVKLKGSDNTFECQFDDESATVVDFLRRWIAFCQSIISTSPQ
For B1, in assay [1] (15 days of ld-IL2 (5% without)), the “frequency of Treg cells among CD3+ cells in the dura” value was found to be 20%. In addition, the “increase of the number of EGFP+ Treg cells in the TG” value in assay [1] (15 days of ld-IL2, female DEREG mice) is on record as 9 fold. Moreover, in assay [1] (setting [3]), the “increase in the density of EGFP+ Treg cells in the dura surrounding the MMA” value was determined as 4 fold and the “increase in the number of EGFP+ Treg cells in DRG” value was found to be 4 fold. For the same molecule, in assay [2] (5 or 15 days of ld-IL2 injections, male C57BL/6J), the “basal hindpaw mechanical sensitivity” value is on record as “not altered”. The “established persistent facial mechanical hypersensitivity resulting from repeated NTG injections” value in assay [2] (after 7 to 9 days of IL2 injections, female Swiss Webster) is reported as “completely reverse”. Also, the “behavioral sensitization by subsequent NTG administrations” value in assay [2] (continuous ld-IL2, female C57BL/6J, day 7-11) was “prevented”. In assay [2] (daily ld-IL2, female Swiss Webster), the “baseline facial mechanical threshold” value was “not altered”. Besides, in assay [2] (day 4-10, male C57BL/6J), the “daily ld-IL2 treatments to completely reverse NTG-induced facial hypersensitivity, first session” value amounted to 7. Moreover, the “slope of ld-IL2-induced reversal (change of threshold per day), first session” value in assay [2] (day 5-11, male C57BL/6J) is given as 5.3±0.9. In assay [2] (day 11, after 7 ld-IL2 injections, female C57BL/6J), the “acute reduction of facial mechanical threshold 3 hours after NTG” value is on record as “did not cause an acute reduction”. In addition, in assay [2] (day 11-13, male C57BL/6J), the “NTG injections needed after cessation of IL2 to lower the threshold to the NTG+saline level, first session” value is on record as 2 NTG injections. In addition, the “ld-IL2 injections required to completely reverse NTG-induced mechanical hypersensitivity, second session” value in assay [2] (day 19-22, male C57BL/6J) is 4 injections. The “slope of ld-IL2-induced reversal (change of threshold per day), second session” value in assay [2] (day 19-23, male C57BL/6J) is reported as 10.3±1.3. Further, the “NTG injections needed after cessation of the second ld-IL2 treatment to reduce the threshold to the NTG+saline level” value in assay [2] (day 23-27, male C57BL/6J) was found to be 3 NTG injections. In assay [2] (delayed ld-IL2 started after 2 NTG injections, female Swiss Webster), the “development of facial cold hypersensitivity” value was “blocked the development”. The “ld-IL2 injections sufficient to completely reverse the effect of repeated NTG” value in assay [2] (female C57BL/6J) was determined as 3 injections. For the same molecule, in assay [2] (ld-IL2 pretreatment starting 5 days before first NTG, male C57BL/6J), the “NTG-induced hindpaw mechanical hypersensitivity” value is “completely blocked”. For the same molecule, in assay [2] (setting [4]), the “NTG-induced facial cold hypersensitivity” value was “prevented the development” and the “basal responses to acetone-induced cooling” value is given as “did not change”. Moreover, the “days of ld-IL2 treatment after which NTG-induced mechanical hypersensitivity started to reverse” value in assay [2] (ld-IL2 started after 2 NTG injections, female Swiss Webster) is on record as 5 days. Also, the “effect of ld-IL2 on NTG-induced facial skin hypersensitivity in Treg-depleted mice” value in assay [2] (mice given anti-CD25 antibody 3 days earlier, male C57BL/6J) is “completely abolished”.

These data come from patent US12702697B2, “Compositions and methods for treatment of headache disorders and neuropathic pain” (Washington University, priority 2019, dated 2026).
